In patent US20050106647A1 (University of Texas, published 2005):

Target: PA-BODIPY conjugate (Bacillus anthracis protective antigen conjugated to BODIPY FL) (Bacillus anthracis, UniProt P13423 30-764)
Sequence (P13423 30-764 limits assumed): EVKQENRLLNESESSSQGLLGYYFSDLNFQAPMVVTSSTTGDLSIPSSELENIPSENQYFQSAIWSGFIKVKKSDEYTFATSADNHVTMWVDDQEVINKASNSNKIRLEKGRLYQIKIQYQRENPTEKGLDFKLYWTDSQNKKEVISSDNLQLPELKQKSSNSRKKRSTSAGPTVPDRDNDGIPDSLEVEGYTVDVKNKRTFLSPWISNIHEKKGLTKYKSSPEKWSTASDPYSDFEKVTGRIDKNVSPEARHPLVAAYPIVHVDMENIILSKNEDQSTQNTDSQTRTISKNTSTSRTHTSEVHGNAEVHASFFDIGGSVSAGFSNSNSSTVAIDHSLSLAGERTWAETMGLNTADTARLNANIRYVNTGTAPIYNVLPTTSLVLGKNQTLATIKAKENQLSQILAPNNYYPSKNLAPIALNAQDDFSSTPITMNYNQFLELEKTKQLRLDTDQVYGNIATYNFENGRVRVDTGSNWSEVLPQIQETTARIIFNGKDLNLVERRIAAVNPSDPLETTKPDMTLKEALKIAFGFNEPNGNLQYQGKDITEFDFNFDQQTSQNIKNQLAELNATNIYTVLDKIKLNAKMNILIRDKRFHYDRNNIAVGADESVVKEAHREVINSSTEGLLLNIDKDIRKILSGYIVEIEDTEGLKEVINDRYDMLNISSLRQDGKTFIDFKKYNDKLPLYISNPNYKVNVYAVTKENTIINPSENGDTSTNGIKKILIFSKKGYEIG

B1: NlpA-[14B7 scFv] fusion anchored on the E. coli inner membrane (scFv)
scFv: CDQSSSDIQMTQTTSSLSASLGDRVTISCRASQDIRNYLNWYQQKPDGTVKLLIYYTSRLQSGVPSRFSGSGSGTDYSLTISNQEQEDIGTYFCQQGNTLPWTFGGGTKLEIKRGGGGSGGGGSGGGGSGGGGSEVQLQQSGPELVKPGASVKISCKDSGYAFSSSWMNWVKQRPGQGLEWIGRIYPGDGDTNYNGKFKGKATLTADKSSSTAYMQLSSLTSVDSAVYFCARSGLLRYAMDYWGQGTSVTVSS
How did the “fold higher mean fluorescence intensity compared to controls” value turn out when B1 was run?
Its value is about 9 fold.
